The data set deals with the molecule itself. Briefly: FRET or BRET; in vitro; purified protein randomly labelled with fluorescein (donor) and Alexa Fluor 594 (acceptor) at an engineered N-terminal cysteine; 250 nM protein, 22 °C, excitation 420 nm; Chelex-treated Ca2+-free buffer, FRET reduced as Ca2+ was added.

B1: single-cysteine EFSAM-GrpE (CGG-EFSAM(58-209)-linker-GrpE(1-171)), labelled with fluorescein and/or Alexa Fluor 594 (other, mouse | Thermus thermophilus HB8)
chain: CGGSEDEKLSFEAVRNIHKLMDDDANGDVDVEESDEFLREDLNYHDPTVKHSTFHGEDKLISVEDLWKAWKSSEVYNWTVDEVIQWLITYVELPQYEETFRKLQLTGHAMPRLAVTNTTMTGTVLKMTDRSHRQKLQLKALDTVLFGPPLLTRHNLELSRANSSTLAAVTSGSELMEERNHENTLEKDLEAVGQEAQALEERLKAAEEELKGLKDKYLRLLADFDNYRKRMEEELKAREREGVLKALRALLPVLDDLDRALEFAEASPESIRQGVRAIRDGFFRILAGLGVEEVPGEGEAFDPRYHEAVGLLPGEPGKVAKVFQRGFRMGEALVRPARVAVGEEKR
modifications: fluorescein-5-maleimide or Alexa Fluor 594 C5 maleimide on the engineered N-terminal cysteine (random labelling, ~0.8-0.9:1 fluorophore to protein)
notes: engineered stretch with the single cysteine, immediately N-terminal to EFSAM residue 58; STIM1 ER-luminal EFSAM domain, mouse, residues 58-209; linker between EFSAM and GrpE; GrpE, Thermus thermophilus HB8, residues 1-171 (nucleotides 2222-2734 of GenBank AB012390.1); also called double-labelled EFSAM-GrpE; donor/acceptor-labelled EFSAM-GrpE; source: E. coli BL21, purified (Ni-NTA, Superdex 200 …)
As to B1, the binding result is recorded as “binds”.

(Values after paper PMC6208404, “Calcium sensing by the STIM1 ER-luminal domain” (Nature Communications, 2018).)
